Measured values: paper PMC7160132

Tested on: XPO5-His6 (Exportin-5) (Homo sapiens)
Assay: EMSA
Settings: no RanGTP, 20 mM HEPES pH 7.3, 150 mM K acetate, 2 mM Mg acetate, 0.05% NP-40, 7 mM 2-mercaptoethanol, 1.5 ug/mL poly dIdC, 0.2% BSA, 25 C 45 min, then 0.3 ug heparin …

Question: With pri-mir-19a as the substance, how does the Kd (two complexes with increasing XPO5) read?
Answer: Its Kd is 14.6 nM.

Question: pri-mir-15b was tested. Which Kd (single shifted complex) did it give?
Answer: The Kd was 9.57 nM.

Question: Which Kd (1 nM RNA, super-shift at high XPO5) does the source give for vtRNA1-1 here?
Answer: The Kd was 36.3 nM.
